From doi:10.1101/2023.03.30.534840 come the findings set out here.

Usually stoichiometry N stands for a count of units in the complex or per binding partner.

Assay [1] deals with MeSufBC complex (His-MeSufB with MeSufC-HA) (Monocercomonoides exilis). Nature of the assay: mass photometry.
The target is the same in assay [2]. Put plainly: SEC. For orientation: Size exclusion chromatography separates by hydrodynamic size, large species first.
Assay [3] shares this target. Put plainly: mass photometry. The source holds these as a separate data set.
Assay [4] shares this target. Nature of the assay: SEC. This is another data set of the same source.
The target in assay [5] is His-MeSufC (expressed alone in E. coli) (Monocercomonoides exilis). Put plainly: SEC.
Assay [6] has as its target T25-MeSufB (Monocercomonoides exilis). Put plainly: two-hybrid.
Assay [7] concerns the target His-MeSufB (Monocercomonoides exilis). Put plainly: mass photometry.
For assay [8], the target named is T25-MeSufC (Monocercomonoides exilis). Put plainly: two-hybrid.

Values joined by “and” are separate entries in the source; they are usually repeats but may differ in a detail not shown here. Identical values can stand only once.

In the case of “MeSufBC complex (His-MeSufB with MeSufC-HA)”, the stoichiometry N (MeSufBC units) is 2 in assay [1]; 4 in assay [2]; 2 in assay [3]; 2 and 4 in assay [4].

Take “His-MeSufC (expressed alone in E. coli) (enzyme)”: in assay [5], the stoichiometry N is 2.

On to MeSufC-T18 (natural protein), for which the β-galactosidase activity (BACTH) in assay [6] came to 670 Miller units.

On to MeSufC-HA (enzyme), for which the stoichiometry N (MeSufC per MeSufB) in assay [7] turned out to be 1.

B1: EcSufB-T18 (natural protein)
chain: MSRNTEATDDVKTWTGGPLNYKEGFFTQLATDELAKGINEEVVRAISAKRNEPEWMLEFRLNAYRAWLEMEEPHWLKAHYDKLNYQDYSYYSAPSCGNCDDTCASEPGAVQQTGANAFLSKEVEAAFEQLGVPVREGKEVAVDAIFDSVSVATTYREKLAEQGIIFCSFGEAIHDHPELVRKYLGTVVPGNDNFFAALNAAVASDGTFIYVPKGVRCPMELSTYFRINAEKTGQFERTILVADEDSYVSYIEGCSAPVRDSYQLHAAVVEVIIHKNAEVKYSTVQNWFPGDNNTGGILNFVTKRALCEGENSKMSWTQSETGSAITWKYPSCILRGDNSIGEFYSVALTSGHQQADTGTKMIHIGKNTKSTIISKGISAGHSQNSYRGLVKIMPTATNARNFTQCDSMLIGANCGAHTFPYVECRNNSAQLEHEATTSRIGEDQLFYCLQRGISEEDAISMIVNGFCKDVFSELPLEFAVEAQKLLAISLEHSVG
In assay [8], B1 had a β-galactosidase activity (BACTH) of 556 Miller units.

B2: EcSufC-T18 (natural protein)
chain: MLSIKDLHVSVEDKAILRGLSLDVHPGEVHAIMGPNGSGKSTLSATLAGREDYEVTGGTVEFKGKDLLALSPEDRAGEGIFMAFQYPVEIPGVSNQFFLQTALNAVRSYRGQETLDRFDFQDLMEEKIALLKMPEDLLTRSVNVGFSGGEKKRNDILQMAVLEPELCILDESDSGLDIDALKVVADGVNSLRDGKRSFIIVTHYQRILDYIKPDYVHVLYQGRIVKSGDFTLVKQLEEQGYGWLTEQQ
In the case of B2, the β-galactosidase activity (BACTH) in assay [6] came out at 1040 Miller units.
